Source: patent US20100226974A1 (MITSUBISHI PHARMA, published 2010)

Target: T1, human non-muscular myosin heavy chain type A (human, UniProt P35579 2-1960)
T1 construct: also called nmMHCA; human non-muscular myosin A chain
Assay: flow cytometry, FITC-labeled antibody at 20 ug/ml on intact MKN45 cells, mean channel number of FL1
Description: Cultured cells of MKN45 or cells of a solid tumor (hereinafter referred to as “tumor cells”) formed by subcutaneous transplantation of MKN45 were allowed to react with the GAH antibody described in EP-A-520499 and EP-A-1174126, which had been labeled with fluorescein isothiocyanate (FITC: Sigma), in a concentration of 20 μg/ml at 4° C. for 1 hour, and then washed once with phosphate buffered saline (PBS). Analysis was carried out in PBS containing propidium iodide (PI: Sigma) using a flow cytometer (FACScan: Becton Dickinson). PI-positive cells, namely dead cells, were excluded from the subject of analysis by gating operation. By calculating the mean channel number of FL1 as an index of FITC fluorescence intensity, comparison of the cultured cells and tumor cells of MKN45 was carried out.

T1 sequence (P35579 2-1960 limits assumed): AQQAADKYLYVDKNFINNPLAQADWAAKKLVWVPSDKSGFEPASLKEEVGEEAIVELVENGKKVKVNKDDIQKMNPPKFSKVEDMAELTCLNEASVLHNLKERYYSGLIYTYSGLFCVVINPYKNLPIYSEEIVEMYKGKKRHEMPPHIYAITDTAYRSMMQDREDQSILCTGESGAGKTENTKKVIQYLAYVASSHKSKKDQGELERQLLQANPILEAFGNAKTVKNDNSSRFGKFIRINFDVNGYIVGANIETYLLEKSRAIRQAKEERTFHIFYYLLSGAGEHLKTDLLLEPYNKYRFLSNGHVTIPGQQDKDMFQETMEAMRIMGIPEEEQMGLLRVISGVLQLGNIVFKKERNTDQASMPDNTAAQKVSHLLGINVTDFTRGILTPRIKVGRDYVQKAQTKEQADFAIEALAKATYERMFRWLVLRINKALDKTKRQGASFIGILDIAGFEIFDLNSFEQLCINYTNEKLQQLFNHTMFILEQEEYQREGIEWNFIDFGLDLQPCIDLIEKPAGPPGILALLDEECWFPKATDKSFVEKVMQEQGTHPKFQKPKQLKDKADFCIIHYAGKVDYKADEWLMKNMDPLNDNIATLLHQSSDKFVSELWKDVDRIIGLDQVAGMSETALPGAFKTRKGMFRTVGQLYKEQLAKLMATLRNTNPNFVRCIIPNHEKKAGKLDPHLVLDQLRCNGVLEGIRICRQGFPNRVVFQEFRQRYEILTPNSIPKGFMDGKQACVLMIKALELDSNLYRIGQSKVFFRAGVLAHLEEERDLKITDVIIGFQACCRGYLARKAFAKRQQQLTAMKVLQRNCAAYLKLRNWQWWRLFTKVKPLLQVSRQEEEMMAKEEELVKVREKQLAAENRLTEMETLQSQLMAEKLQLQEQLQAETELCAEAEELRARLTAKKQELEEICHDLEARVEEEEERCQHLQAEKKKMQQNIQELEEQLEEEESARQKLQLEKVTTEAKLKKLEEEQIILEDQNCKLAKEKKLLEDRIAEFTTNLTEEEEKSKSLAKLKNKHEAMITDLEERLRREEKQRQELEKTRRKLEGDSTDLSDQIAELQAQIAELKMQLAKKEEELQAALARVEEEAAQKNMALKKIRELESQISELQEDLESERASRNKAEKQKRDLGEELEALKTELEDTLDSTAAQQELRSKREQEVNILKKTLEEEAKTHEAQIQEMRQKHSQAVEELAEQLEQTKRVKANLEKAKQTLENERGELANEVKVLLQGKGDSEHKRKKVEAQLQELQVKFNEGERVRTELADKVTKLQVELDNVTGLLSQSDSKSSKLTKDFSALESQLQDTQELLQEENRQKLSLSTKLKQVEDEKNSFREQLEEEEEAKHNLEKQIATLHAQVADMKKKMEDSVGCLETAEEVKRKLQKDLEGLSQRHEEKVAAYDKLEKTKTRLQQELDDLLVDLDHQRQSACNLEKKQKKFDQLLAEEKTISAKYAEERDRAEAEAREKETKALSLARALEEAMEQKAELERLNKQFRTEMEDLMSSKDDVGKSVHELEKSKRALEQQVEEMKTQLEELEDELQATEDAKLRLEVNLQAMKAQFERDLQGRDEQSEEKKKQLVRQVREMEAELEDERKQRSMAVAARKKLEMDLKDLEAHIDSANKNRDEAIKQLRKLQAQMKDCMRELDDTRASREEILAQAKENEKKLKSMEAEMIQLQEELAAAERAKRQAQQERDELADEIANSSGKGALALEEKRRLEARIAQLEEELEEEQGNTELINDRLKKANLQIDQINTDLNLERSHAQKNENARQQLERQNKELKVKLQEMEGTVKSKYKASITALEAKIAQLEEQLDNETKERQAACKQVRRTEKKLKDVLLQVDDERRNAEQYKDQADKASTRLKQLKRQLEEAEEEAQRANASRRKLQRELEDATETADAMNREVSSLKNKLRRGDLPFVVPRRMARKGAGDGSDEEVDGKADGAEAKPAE

fold reactivity, tumor cells against cultured cells of MKN45: ~18 times
B1: GAH antibody (human monoclonal antibody disclosed in EP-A-520499) (antibody, V domains shown)
VH: QVQLQESGPGLVKPSQTLSLTCTVSGGSISSCGFYWNWIRQHPGKGLEWIGYIYYSGSTYYNPSLKSRVTISLDTSKSQFSLKLSSLTAADTAVYYCARSTRLRGADYWGQGTMVTVSS
VL: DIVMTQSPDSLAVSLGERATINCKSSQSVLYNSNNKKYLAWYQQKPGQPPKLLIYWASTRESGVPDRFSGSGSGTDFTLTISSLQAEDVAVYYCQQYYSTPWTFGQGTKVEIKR
